Literature values, collected in paper PMC4581962.
pKd: −log10 of the molar value.

Biological target: IL-6Rα (Homo sapiens) (UniProt P08887)
UniProt P08887, sequence (P08887 20-355): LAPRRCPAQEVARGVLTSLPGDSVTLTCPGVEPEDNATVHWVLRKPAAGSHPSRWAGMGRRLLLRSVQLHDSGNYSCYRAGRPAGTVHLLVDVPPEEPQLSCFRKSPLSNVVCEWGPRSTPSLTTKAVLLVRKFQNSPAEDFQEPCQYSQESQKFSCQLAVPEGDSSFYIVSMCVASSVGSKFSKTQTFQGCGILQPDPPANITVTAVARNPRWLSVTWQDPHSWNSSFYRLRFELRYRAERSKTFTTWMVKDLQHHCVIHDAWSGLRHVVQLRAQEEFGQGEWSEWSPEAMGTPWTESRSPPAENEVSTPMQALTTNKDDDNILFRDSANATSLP

pKd: 8.05
Substance: IL-6 (from UniProt P05231)
